Results as given in patent US20070128661A1 (Harvard, published 2007).
Residue numbers refer to the chain shown, from its start.

Key:
[1] = system: RelA (NF-kB p65); settings: ChIP real-time PCR; binding increase in T-bet-/- Th1 cells versus wt
[2] = target: T1, Flag-tagged T-bet (wild type), immunoprecipitated from 293T cells (UniProt Q9JKD8)
T1 sequence: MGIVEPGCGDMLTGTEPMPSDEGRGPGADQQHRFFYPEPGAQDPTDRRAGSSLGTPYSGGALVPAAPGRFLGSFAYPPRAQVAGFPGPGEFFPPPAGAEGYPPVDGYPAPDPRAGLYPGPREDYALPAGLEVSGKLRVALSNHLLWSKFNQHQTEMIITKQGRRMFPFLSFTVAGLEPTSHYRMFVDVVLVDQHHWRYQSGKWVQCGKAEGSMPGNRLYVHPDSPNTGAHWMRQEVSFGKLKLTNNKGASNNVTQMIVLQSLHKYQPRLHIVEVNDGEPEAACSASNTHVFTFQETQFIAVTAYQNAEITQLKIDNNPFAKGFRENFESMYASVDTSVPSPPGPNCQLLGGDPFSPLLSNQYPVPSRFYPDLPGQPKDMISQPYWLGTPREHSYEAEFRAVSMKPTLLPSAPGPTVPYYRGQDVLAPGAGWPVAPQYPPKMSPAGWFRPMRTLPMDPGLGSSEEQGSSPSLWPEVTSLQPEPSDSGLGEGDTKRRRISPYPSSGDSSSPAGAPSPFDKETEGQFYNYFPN

[3] = target: T2, Flag-tagged T-bet S498A control mutant, immunoprecipitated from 293T cells (UniProt Q9JKD8)
T2 sequence: T1 sequence with S498A

[4] = target: T3, Flag-tagged T-bet S508A mutant, immunoprecipitated from 293T cells (UniProt Q9JKD8)
T3 sequence: T1 sequence with S508A

[5] = target: endogenous RelA in mouse Th1 cells (mouse, UniProt Q04207 1-549); assay: cell-based or functional assay
Sequence of endogenous RelA in mouse Th1 cells (Q04207 whole entry): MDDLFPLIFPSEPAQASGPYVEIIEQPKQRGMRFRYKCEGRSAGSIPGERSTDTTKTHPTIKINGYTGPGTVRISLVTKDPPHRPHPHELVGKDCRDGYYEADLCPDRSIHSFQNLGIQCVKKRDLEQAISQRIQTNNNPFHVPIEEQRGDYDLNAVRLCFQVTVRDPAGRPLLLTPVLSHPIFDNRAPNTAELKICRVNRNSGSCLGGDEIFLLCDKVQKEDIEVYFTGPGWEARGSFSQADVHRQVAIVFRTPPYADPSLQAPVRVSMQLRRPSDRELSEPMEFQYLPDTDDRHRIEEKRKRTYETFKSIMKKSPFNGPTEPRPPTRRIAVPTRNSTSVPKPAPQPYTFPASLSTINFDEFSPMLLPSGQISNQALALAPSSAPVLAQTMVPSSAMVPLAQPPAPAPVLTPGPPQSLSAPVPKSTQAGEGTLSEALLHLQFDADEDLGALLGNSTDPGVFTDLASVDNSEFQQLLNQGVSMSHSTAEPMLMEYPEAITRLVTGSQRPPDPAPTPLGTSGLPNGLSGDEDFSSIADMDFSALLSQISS

Q: How did the binding signal [1] turn out when IL-2 promoter chromatin (ChIP amplicon) was run?
A: 4.5 fold

Q: With PKA (recombinant) as the molecule, how does the “in vitro phosphorylation of T-bet (γ-[32P]ATP, autoradiography)” value [2] read?
A: T-bet was also phosphorylated by PKA but with 1000-fold lesser efficiency than CKI

Q: And the “in vitro phosphorylation of T-bet (γ-[32P]ATP, autoradiography)” value [3]?
A: PKA-induced phosphorylation was not different among the wt, S508A and S498A T-bet proteins

Q: What about the “in vitro phosphorylation of T-bet (γ-[32P]ATP, autoradiography)” value [4] of the same molecule?
A: PKA-induced phosphorylation was not different among the wt, S508A and S498A T-bet proteins

Q: Which “in vitro phosphorylation of T-bet (γ-[32P]ATP, autoradiography)” value [2] does the source give for active ERK (recombinant) here?
A: CKI, but not active ERK, phosphorylated T-bet protein in vitro

Q: Which “in vitro phosphorylation of T-bet (γ-[32P]ATP, autoradiography)” value [2] does the source give for casein kinase I (recombinant) here?
A: CKI, but not active ERK, phosphorylated T-bet protein in vitro

Q: What about the “in vitro phosphorylation of T-bet (γ-[32P]ATP, autoradiography)” value [3] of the same molecule?
A: CKI-mediated phosphorylation of the S508A mutant, but not the S498A control mutant, was dramatically reduced compared to wt

Q: What about the “in vitro phosphorylation of T-bet (γ-[32P]ATP, autoradiography)” value [4] of the same molecule?
A: CKI-mediated phosphorylation of the S508A mutant, but not the S498A control mutant, was dramatically reduced compared to wt

Q: How did the “in vitro phosphorylation of T-bet by GSK-3 after prephosphorylation with CKI (γ-[32P]ATP)” value (“in vitro phosphorylation of T-bet … (γ-[32P]ATP)” below) [2] turn out when “glycogen synthase kinase-3 (recombinant)” was run?
A: Hyperphosphorylation of T-bet by GSK-3 was apparent

Q: And the “in vitro phosphorylation of T-bet … (γ-[32P]ATP)” value [3]?
A: GSK-3 induced wt levels of phosphorylation in the S498A mutant

Q: What about the “in vitro phosphorylation of T-bet … (γ-[32P]ATP)” value [4] of the same molecule?
A: GSK-3-mediated phosphorylation was markedly decreased in the S508A mutant

B1: endogenous T-bet in mouse Th1 cells (other, UniProt Q9JKD8 1-530, looked up)
chain: T1 sequence
modifications: phosphoserine at S508 found by mass spectrometry in primary Th1 cells
Q: How did the “IL-2 promoter binding of RelA by ChIP with real-time PCR, T-bet-/- versus wt Th1 cells” value [5] turn out when B1 was run?
A: 4.5 fold
